± gives the standard deviation of the averaged measurements.
Test system: Saccharomyces cerevisiae
Assay: protein stability index of tFT-peptide fusion (C-terminal peptide) (PSI (0-1 scale)); higher = more stable (slower turnover)
Settings: temperature: 30 C
Protocol: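 MPS profiling in S. cerevisiae of the yeast C-terminome library: the last 12 aa of each annotated ORF are fused to the C-terminus of a sfGFP-mCherry timer, after a GGGS linker. Cells are FACS-sorted into 8 mCherry/sfGFP bins and deep-sequenced. PSI runs from 0 (unstable) to 1 (stable); wild type and das1Δ backgrounds, two technical replicates each.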

[1] = genetic background: das1 deletion

| Sequence | protein stability index [1] | protein stability index (genetic background: wild type) |
| --- | --- | --- |
| IYSVIQCLFLHS [YMR141W-A C-terminal 12 aa] | 0.64018 ± 0.00059 | 0.607 ± 0.018 |
| KAALDRVENALA [IML2 C-terminal 12 aa] | 0.699 ± 0.02 | 0.676 ± 0.017 |
| KAIEYFEEYQSW [FRE3 C-terminal 12 aa] | 0.721 ± 0.021 | 0.6952 ± 0.0065 |
| KDGFVLYSYGQK [SKP2 C-terminal 12 aa] | 0.69 ± 0.021 | 0.738 ± 0.034 |
| KDKKDKKKKHRD [RPA34 C-terminal 12 aa] | 0.704 ± 0.013 | 0.664 ± 0.035 |
| KDLFASIGKKKL [FYV8 C-terminal 12 aa] | 0.714 ± 0.011 | 0.682 ± 0.026 |
| KDWLIKTRKTSL [TVS1 C-terminal 12 aa] | 0.707 ± 0.013 | 0.693 ± 0.011 |
| KEDKKKKSSNCC [YPT32 C-terminal 12 aa] | 0.704 ± 0.0073 | 0.732 ± 0.014 |
| KEGRRSRTRTSS [YJR098C C-terminal 12 aa] | 0.7049 ± 0.0033 | 0.703 ± 0.0041 |
| KENLANNEILDN [YKL063C C-terminal 12 aa] | 0.683 ± 0.018 | 0.67 ± 0.026 |
| KERIVLSNVRPM [TFC7 C-terminal 12 aa] | 0.6909 ± 0.004 | 0.686 ± 0.027 |
| KESIQQQEDDLL [SEC17 C-terminal 12 aa] | 0.6974 ± 0.0026 | 0.692 ± 0.014 |
| KETDKVNDENSI [MLP1 C-terminal 12 aa] | 0.708 ± 0.0044 | 0.756 ± 0.059 |
| KETTTRNYRGTC [GAD1 C-terminal 12 aa] | 0.71 ± 0.029 | 0.707 ± 0.032 |
| KFAKANIGYVMG [RPN4 C-terminal 12 aa] | 0.4528 ± 0.0025 | 0.495 ± 0.011 |
| KFDIVDQLLSTL [RSM24 C-terminal 12 aa] | 0.7136 ± 0.0037 | 0.684 ± 0.014 |
| KFEKKLYNFLGF [GEP4 C-terminal 12 aa] | 0.701 ± 0.028 | 0.717 ± 0.017 |
| KGMKRLDYRFIH [SOA1 C-terminal 12 aa] | 0.688 ± 0.029 | 0.234 ± 0.012 |
| KGNLPGVKKGIW [MRP2 C-terminal 12 aa] | 0.687 ± 0.012 | 0.668 ± 0.011 |
| KGRYVNSSKRRS [NOB1 C-terminal 12 aa] | 0.6955 ± 0.00021 | 0.6781 ± 0.004 |
| KGTKRDQNDNHN [AQR1 C-terminal 12 aa] | 0.698 ± 0.01 | 0.6782 ± 0.0022 |

| Sequence | protein stability index [1] | protein stability index (genetic background: wild type) |
| --- | --- | --- |
| KHAFMGTLKKDL [RPL3 C-terminal 12 aa] | 0.7 ± 0.01 | 0.686 ± 0.03 |
| KIEHVDDETRTH [PEX13 C-terminal 12 aa] | 0.6991 ± 0.0032 | 0.6991 ± 0.0042 |
| KILGRYVVDTSK [ADH3 C-terminal 12 aa] | 0.7177 ± 0.0055 | 0.6547 ± 0.0035 |
| KKKRGFLGLFGR [SRP68 C-terminal 12 aa] | 0.706 ± 0.021 | 0.677 ± 0.0092 |
| KKLEGTIEYQKL [RPT4 C-terminal 12 aa] | 0.708 ± 0.027 | 0.702 ± 0.012 |
| KKLNFKLCQAFM [NUP85 C-terminal 12 aa] | 0.673 ± 0.012 | 0.6183 ± 0.006 |
| KKNGKISEKPKK [PDR15 C-terminal 12 aa] | 0.727 ± 0.02 | 0.677 ± 0.037 |
| KKNKSAIDGIFG [RMP1 C-terminal 12 aa] | 0.7173 ± 0.0015 | 0.694 ± 0.014 |
| KKPSSYVMVPRP [MRPL8 C-terminal 12 aa] | 0.708 ± 0.011 | 0.6724 ± 0.002 |
| KKQESDNDANSK [CMC2 C-terminal 12 aa] | 0.703 ± 0.014 | 0.6755 ± 0.0052 |
| KKSKNRNTSLRP [SIP5 C-terminal 12 aa] | 0.726 ± 0.02 | 0.689 ± 0.02 |
| KLDEAEMQGLIM [YMR158C-A C-terminal 12 aa] | 0.69 ± 0.012 | 0.724 ± 0.041 |
| KLKRTITLPQLD [CIK1 C-terminal 12 aa] | 0.691 ± 0.022 | 0.761 ± 0.074 |
| KLSAPIFSILHS [APT2 C-terminal 12 aa] | 0.721 ± 0.0083 | 0.504 ± 0.0051 |
| KLTIRIKQKTHL [YOR316C-A C-terminal 12 aa] | 0.702 ± 0.012 | 0.6824 ± 0.0065 |
| KMGQSFNAAGKF [TIM10 C-terminal 12 aa] | 0.692 ± 0.033 | 0.683 ± 0.0072 |
| KNFKTDLSSSSL [SMK1 C-terminal 12 aa] | 0.7 ± 0.0086 | 0.711 ± 0.014 |
| KNFYNRHTSPQL [YHL008C C-terminal 12 aa] | 0.737 ± 0.03 | 0.679 ± 0.02 |
| KNKKNKKKGKKK [CHS5 C-terminal 12 aa] | 0.694 ± 0.048 | 0.696 ± 0.019 |
| KNLWEKFWAAVA [LYP1 C-terminal 12 aa] | 0.693 ± 0.0092 | 0.28 ± 0.021 |

— the supplement of paper PMC10724198
